Results reported in a protein production outcome set (Wang et al. 2014).

Assay: label from the status in PepcDB records

| Sequence | protein production |
| --- | --- |
| MTEEQFSSYHPPLPPTTEEDRFSWLRLLRSRRVGPTTFRRLMHEHGTAQNALAALPEVARAAGVEGYEICPPGVVEAELKAAKAAKARLLCLGDADYPSHLAGISDAPPLLWLLGDPALLRRPMIALVGARNASSLGTRMARALAQDLGTAGFVVVSGLARGIDTAAHLAALPSGTIAVMAGGVDTVYPAENTHLAADIAQHGLRLSEQPMRLTPQARHFPRRNRIISGLAQAVVVVEAAAKSGSLITARDALDQGREVLAVPGHPFDARAAGCNMLIRDGAHLVRNAEDVITALPALTAPQPQPDLCDLMQQPAPPAKRSLRETVALHSLILDRLGPSPVAEDQLIRDLAASPGEVAPVLVDLELEGRINRQAGGLLSRVN | failed |
| MTEKFGAKSTADEVLSGVDLRGKRFLITGVSSGIGLETARALVAHGASVVGAVRDRAKAERATASVRDAASQGGGTLELTELDLASLQSIRACADRLLADGRRFDSIIANAGVMATPFARTADGFELQFGTNHLGHFALVNRIASLLADNGRLVVLSSQAHRVADVDLDDPNFERQAYDPWVAYGRSKTATSLFAAEFDKRHRDRGIRAASVMPGNSLTDLPRHLRQEDLQGLFETVGKARAEAGLPPAELKDIPQVAATSVWAAVVADKDEIGGHYLDDCAVAPINDTPNPFADGVRSYALDADKAKRLWAKSEEWIGANTAAI | failed |
| MTELNFHLLPIISDRFTTTTTTSPSFSSHSSSSSSLLSFTKRRRKHQPLVSSIRMEQSRSRNRKDKVVVILGATGAGKSRLSVDLATRFPSEIINSDKIQVYEGLEITTNQITLQDRRGVPHHLLGVINPEHGELTAGEFRSAASNVVKEITSRQKVPIIAGGSNSFVHALLAQRFDPKFDPFSSGSCLISSDLRYECCFIWVDVSETVLYEYLLRRVDEMMDSGMFEELSRFYDPVKSGLETRFGIRKAIGVPEFDGYFKEYPPEKKMIKWDALRKAAYDKAVDDIKRNTWTLAKRQVKKIEMLKDAGWEIERVDATASFKAVMMKSSSEKKWRENWEEQVLEPSVKIVKRHLVQN | failed |
| MTEPATAESAPAALREMRWWDIDPVLRMERELFPEDAWSRGMFWSELAHARGPGATRRYLVAEEDGHVVGYAGLVTSGEQADVQTIAVARDHWGTGLGARLLTELLRAATDFECTEVLLECRVDNTRAQRLYERFGFEPIGFRRGYYQPGNVDALVMRLTDPSTSVPGTERGTENHG | failed |
| MTEQSAHEKYEFKKKLEGLRDKKGRSTELISLYIPPDKQIFDVTNQLKDEHGQAANIKSKLTRTNVQGAIESLLSRLRYLDKVPENGIVYFTGAVDIGANKTSMESEVIVPPDPITVYKYHCDSSFYLEPLEDMLKDKNTYGLLVLDRREATIGLLVGKRIQPFRNLTSTVPGKQRKGGQSAHRFQQLRLIAIHDFYKRIGDAASEVFMAVDHKDLKGVLIGGPSPTKEEFHAGEFLHHELMKKILGLFDTAYTDESGLSELVNAAGEKLQDLELMGQKNAVRDFFKELIADSGKVAYGESQVRANLEINSVDVLLLSEDLRAERVTTKCSVCGYENKWTRRWKPGEPAPAAGNCPKCGSSLEVTDVTDIVDEFSELADKSNAKVVFVSTDFDEGSQLMNAFGGIAAILRYNTGV | failed |
| MTERGLLIVLSGPSGVGKGTVREAVFKDPETSFDYSISMTTRLPREGEQDGVDYYFRSREVFEQAIKDGKMLEYAEYVGNYYGTPLEYVEEKLAAGVDIFLEIEVQGAMQVRKAMPEGIFIFLTPPDLSELKNRIIGRGTESMEVVEERMETAKKEIEMMASYDYAVVNDVVANAVQKIKGIVETEHLKTERVIHRYKKMLEGLQ | not failed |
| MTESKKLWTGHIHLGEKVDFGVILNQLCQAFNGSPFFSHNAMQMRVIDNQIEGYIDMQPYLIGNVAFQILHGGVAATLLDSIGGIVAMAEIYRRAEATEMAEAIKKVSRLATVDMRVDYLAPGRGQYFIARAEVLRFGRKGCTMRMNLINDENKAIATAIASYAF | failed |
| MTESVARLRGEQLTLGYGKYTVAENLTVEIPDGHFTAIIGPNGCGKSTLLRTLSRLMTPAHGHVWLDGEHIQHYASKEVARRIGLLAQNATTLGDITVQELVARGRYPHQPLFTRWRKEDEEAVTKAMQATGITHLADQSVDTLSGGQRQRAWIAMVLAQETAIMLLDEPTTWLDISHQIDLLELLSELNREKGYTLAAVLHDLNQACRYASHLIALREGKIVAQGAPKEIVTAELIERIYGLRCMIIDDPVAGTPLVVPLGRTAPSTANS | failed |
| MTETKPRIAIRYCTQCNWLLRAGWMAQEILQTFASDIGEVSLIPSTGGLFEITVDGTIIWERKRDGGFPGPKELKQRIRDLIDPERDLGHVDRTKHEGLDT | not failed |
| MTEVALSPRGRSVAYTVRRLSPGQAPAPRARLYVARTSGRDDPRLLFQDEHDIRAPAWHPDGTHLAFVRPVNGTPQVFVIPLNGGVPYRLTDTPHGAQAPQWGPDGERLLFASHVPEPAVRRQTARRPPTERPGRTASDTIRTPPPDTLLVLRHDRTLRPVDTLAVDADGRPQTPTDTTDTLHVPRHSSLSDTLTAPPVRRLAGLSPDSLQAVFDRFRLRSDTTTVAVRPDTAAAPNGTLAQVRRWMHQNRRSGTALVSSRLEIQGERQLRPTPTYRHHYVVDLPAGIRSGRPPRPTPRLLTGGYRSYGQADWLPGGEQVVVSGMPATNESPDRVRRRNLYVADLNTPRLRRLLRIENHTLTSPSVTTDGSTVAFRVESLAPSSDAPAEIGLFALDGRSQPRILTSALDRDVTSVTWAPDGWYLYTTAPSEGGRPLFRFTPFAQDTTDGAPQAPSPTLPTDRATSRNTFTFDSTMVRPAEAEQLTSAARAIHSFDVTDATAVYASTDPTTPSALYANTVSFNNERPLATPNAEWLSRRQVAPPDRMTVSHDSLAVTGWVTRPVAFADSLRHPLFVQARGGPPALSAPYTPEAWFERQYLTGRGLGLVEGFPRGSAGFGTAFRRANDKNWGPGPARDILALADSAAALSWTDSTRVALGGTGYGGTLTAWILGRTNRFAAAVALNGVYDLPALLGGGRAWRLVPAEFGGYPWDGVPPRSLGDPVLSSRLPSPDSTAQTPWTALHRNSPLTYAHRIRTPLLLMQGGADRRVGPSQGERLYKRLKILDRPVEYVRYPEVGHDMSASASPRQRLDRLVRTYEFLARFLEPPAPPTAPQSPPRP | failed |
| MTEWYVVLPATILLIALSAFFVIIEFALLAARRNRLEETVETSRSSRAALRSLNELTLMLAGAQLGITMVTFALGAITKPWVHYALMPLFEWARIPLVMADVIAFILSLFIVTFLHLVIGEMAPKSWAIAHPETALRTIAIPARGFINLFRPLLQWINKMANDLVRKVGETPVDRAAAGGYDTDTLHALIEHSRETGALDQQSAAQISGIIKLDKITVGQTLTASPFTHSASATVAEVQAAAQRSGSLRVLIDAPSHLFPHVIHVRDTLGASPDEKASKWSRPILTVAETDTLHQALEYMREHNEQISAVLSADGKTVLGVITWDHILKYLWPASV | failed |
| MTEYKQEQEMEIEALEAILMDEFKEIHSSESGLNTSNRCFQITVTPQDDELEELAIPPVQLALVFSHTENYPDEAPLLDVKSIRGIHVSDLTILKEKLEQEASENLGMAMIYTLVSSAKDWLSEHYGQDDAAEFAEVEAAKEDEVIVPHGEPVTLETFLAWRERYEAELALERAKLMPESALTAPKEKKLTGRQWFESGRGRGTVVIADEEDEEEDEEDIDFEDEDFEDDEEDMLEHYLAEKSDSSAPPTRT | failed |
| MTFAWGRGSHGGAGMRIVQITDTHFSPTKAHFNGNWAPLAAWIEQSGADLVIHTGDLSVDGADRDDDIAFCMDLMREISAPMLLVPGNHDVGHLPGSLQPVNAGRLERWRRLVGPDYWMEDAGSWRLIGLDSLLMGFDDAEEEAQFDWLRTVLESRGGRRVALFAHKPLFVDAPGEGDTGYWSVRPAQRQRLYDLIATHDVALFASGHLHRAWQGKYENTSLVWGPSAAFVVGDMERDMPGERLLGAVIHQFSDTVTSEIVAIPGMTAYVLDDVVAEVYPHEAHKARKRVASLEHHHHHH | failed |
| MTFEDLHEYLDYLAKKNDLVTITEEVDPNLDLTYILSEEERMGRGRTILFKNVKGSQVPAVGNLFSTNEKLKAVLGDDPYSIGVKIADIVKPPRDSESFIGKGLEMMRELSGLRPKVSNSIPSGYSELEKVDLYRYPICKTWPDDGGPFITLPLVITKDPSTGIRNMGMYRMQVYDSETTGMHWHIHKGGSENFLKEKEKGKAMDVAVVIGSDPLTIFSAVAPLPNGIDEFMFRGLISRKRSELVKGKTVDLEYPRNFEIVLEGYIDPSETRVEGPFGDHTGYYSLEEEFPVFHVKNIIERNDRIYPTTIVGKLWHEDVVLGKAVERMFLPLIQMVLPEVVDINTMEEAVFHNMVIVSIKKRYPGHAKKVMFALWGLGQLMFSKIIVVVDDDINIHNRKELIWAMTTRIDPDRDVIIIPGTVTDSLDHAAPLFNYGSKMGIDATKKDKSEGYTRRWPDVLEMPKDVVDKVRQIMKNNRLIQLEHHHHHH | failed |
| MTFEEFKDRLFALAKKNGVEVQISFLETREFSLRLANGDLDQYTDAGKFNVEIKVLKDGKTGTFRTQVLENPEKCFEEALSNLQVKDSEEKEYFFEGGKEYREMETYVGRFEKLSVKEKMDMAKKAHESAAKDERVVMVPTVMYKDMVIKKIITNTLGLDVESQMDGGFLFAMAIARDANPRSGSWYELARTPEDLNPEEIGKRAAEEAISLIGSKTIPSGKYPVLMRNTALLDLMEMFIPMISAENVQKNLSPLKGKLGEQVGNPAVSIKDLPYHPKGLSSTPFDDEGVPTTEKFVLENGVLKTFLHNLKTARKEGVEPTGNGFVGGIRPVNLMLMPGEKSFEELLKEMDRGVVITEVEGMHAGANSISGEFSLFAKGYWVENGEIAHGVEDITISGNFLDLLRKIVLVGNDVKVSQHTIAPSVLVEVLDVAGK | not failed |
| MTFKRSLFFLLLLLSVATARAQIDVDRVITIGRNALYFNDYVVSIGYFNQVVGLRPWMAEPYFYRGIAKISLEDYTGAEADASACLQRNALIPKAYLLRGVARQNLGKIDSAIQDYRRGLELMPNDEGMLVNLTGVLTDSKRYAEAREGVAELLKFYPKSKQAHIALSAIELGEQDTVAAIRELNEVLRMDSLFAPAYSQMAMLHLKSKRNAEAMAALDKAIELEPSELSNYINRGVIRYQSNDLRGAMDDYSHVVRQKPNDKLARFNRALLRSYLGDVNNAIEDFDVVIRLEPENYHALYNRAILLTQINENRKAITDFDKVLGHYPDFVVGYYARSQAKKALGDTRGAERDYWRAFDIEKAAQSKTKKTKKSSSSTSTKETREDSDETIEKFNLLVVSEKSSEKRTRYSSRIRGRIQDNDVEVQPSPLFVLSYYEQSSSEEVPRVYYSEAIARFNDKKVLPKRLKPINREVALSQEQVAYHEQDITEISERTAGNADLCFRRALDYMLIQNLEQAIVDFDQAVELNKQFALAYFGRAIARAKLVEARQGASFIHQEAETVNAMTKALITTPRTNAMGVPAAAESPERKPAISDVDGELVMRDLNRTIELDPNFAYAYYNRAVLLARRGDTDAALSDYDRAIKAYPEFADAYFNRGLLLLSRGKAKEGIADLSRAGEYGLYKAYNIIKRMSTKS | failed |
| MTFPSVALVVVYVGGLVILGFGMAKIVYVPMALYFDWLYRSICARHRYSVLSDRPLVSVIVPGYNEAVVITGCVESILASRYLRLEVILVDDGSTDETASIMEGLAQQYDRVRFLSQANAGKGAALNCGIAAALGDILMFVDADGVFAPDTLIHMLEGFDDPKVGAVCGDDRPVNLDRLQTMMLAILSHVGTGLVRRALSLMNCLPIVSGNIGAFRSDLVRELGGFHEDTLGEDLELTWRVYKAGYRVRFQPKALVYAESPSTMGGLWRQRVRWSRGLLQTLRLHSGMLGSRRYGMFGAFLVFNAITMVLIPILQLVVLALLPFLYVAGMGPVPAEVLAILGWLGVFVSLALIVFSVGLNRSWRDLRFLWTLPLWPFYSVFVGLALASAIVKEIRGSPARWNKLQRTGIKSVTATHSVTSTDVSQRQEAHA | failed |
| MTFSQMILNLQNYWQEQGCAIMQPYDMPAGAGTFHPATFLRSLGKKPWAAAYVAPSRRPTDGRYGENPNRLGAYYQFQVLIKPSPDNIQELYLKSLENLGFDLKSHDIRFVEDNWESPSLGAWGLGWEVWLDGMEVTQFTYFQQVGGIAVDLVSAEITYGLERIAMYLQNVDNVYDIVWSEFNGEKIKYADVHKQSEYEFSKYNFEVSDVKILNEQFENSYKECKNILEQGLALPAYDYCMLAAHTFNLLDARGAISVAQRQDYMLKIRELSKNCAEIYKKNLNEAE | not failed |
